The target of assay [1] is T1, human glucagon receptor (human, UniProt P47871 26-477).
T1 construct: whole, on cells; Potency assay (I)(b): whole BHK cells (clone pLJ6'-4-25) with CRE luciferase; also called hGlucagonR; hGCGR
Nature of the assay: displacement of 125I-glucagon from BHK membranes with human glucagon receptor (SPA), Assay (II)(b).

For assay [2], the target named is T1, human glucagon receptor. Nature of the assay: cell-based or functional assay.

*1 amine or outer side, *2 acyl side, *3 side chain or, on linkers, in order; H or OH if unused. Side-chain parts run from the residue outwards. [ ]: non-standard residue; d: D form. The star is where a group is joined. γGlu = O=C(O)[C@H](CCC(=O)[*:2])N[*:1]; Desaminohistidyl = O=C(CCc1c[nH]cn1)*; Aib = CC(C)(N)C(=O)O

As usually defined, the IC50 is the point on the concentration scale where inhibition reaches its midpoint. Higher therefore signals weaker potency in that assay.

T1 sequence (P47871 26-477): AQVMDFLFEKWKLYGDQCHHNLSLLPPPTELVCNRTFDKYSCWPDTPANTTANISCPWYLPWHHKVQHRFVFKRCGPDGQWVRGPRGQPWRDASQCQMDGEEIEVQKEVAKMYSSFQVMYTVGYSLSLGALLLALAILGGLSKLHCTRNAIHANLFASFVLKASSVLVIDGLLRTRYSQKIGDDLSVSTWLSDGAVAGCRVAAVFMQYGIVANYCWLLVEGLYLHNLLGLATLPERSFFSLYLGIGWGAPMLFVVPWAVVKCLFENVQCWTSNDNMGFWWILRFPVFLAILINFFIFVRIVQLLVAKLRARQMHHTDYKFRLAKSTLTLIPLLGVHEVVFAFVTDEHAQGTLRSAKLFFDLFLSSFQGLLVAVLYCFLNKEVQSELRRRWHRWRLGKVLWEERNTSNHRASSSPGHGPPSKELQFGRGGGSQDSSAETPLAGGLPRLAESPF

B1: N^ε24-[(4S)-4-[[(4S)-4-[[(4S)-4-[[(4S)-4-acetamido-4-carboxybutanoyl]amino]-4-carboxybutanoyl]amino]-4-carboxybutanoyl]amino]-4-carboxybutanoyl]-[Imp1, His3, … (peptide)
peptide: [Desaminohistidyl]SHGTFTSDYSKYLD[Aib]RRAQDFVK([γGlu-γGlu-γGlu-γGlu-Ac])WLLST-OH
SMILES: CC(=O)N[C@@H](CCC(=O)N[C@@H](CCC(=O)N[C@@H](CCC(=O)N[C@@H](CCC(=O)NCCCC[C@H](NC(=O)[C@@H](NC(=O)[C@H](Cc1ccccc1)NC(=O)[C@H](CC(=O)O)NC(=O)[C@H](CCC(N)=O)NC(=O)[C@H](C)NC(=O)[C@H](CCCNC(=N)N)NC(=O)[C@H](CCCNC(=N)N)NC(=O)C(C)(C)NC(=O)[C@H](CC(=O)O)NC(=O)[C@H](CC(C)C)NC(=O)[C@H](Cc1ccc(O)cc1)NC(=O)[C@H](CCCCN)NC(=O)[C@H](CO)NC(=O)[C@H](Cc1ccc(O)cc1)NC(=O)[C@H](CC(=O)O)NC(=O)[C@H](CO)NC(=O)[C@@H](NC(=O)[C@H](Cc1ccccc1)NC(=O)[C@@H](NC(=O)CNC(=O)[C@H](Cc1c[nH]cn1)NC(=O)[C@H](CO)NC(=O)CCc1c[nH]cn1)[C@@H](C)O)[C@@H](C)O)C(C)C)C(=O)N[C@@H](Cc1c[nH]c2ccccc12)C(=O)N[C@@H](CC(C)C)C(=O)N[C@@H](CC(C)C)C(=O)N[C@@H](CO)C(=O)N[C@H](C(=O)O)[C@@H](C)O)C(=O)O)C(=O)O)C(=O)O)C(=O)O
notes: Imp and Aib written X under substitutions
With B1, the IC50 with human glucagon receptor [1] came out at 0.3 nM. Further, in the assay with human glucagon receptor [2], the “EC50 hGlucagonR (pM), CRE luciferase reporter in BHK cells” value (“EC50 hGlucagonR (pM)” for short) was determined as 2 pM.

B2: N^ε24-[(4S)-4-[[(4S)-4-[[(4S)-4-acetamido-4-carboxybutanoyl]amino]-4-carboxybutanoyl]amino]-4-carboxybutanoyl]-[Imp1, His3, Glu15, Glu21, Lys24, Leu27, … (peptide)
peptide: [Desaminohistidyl]SHGTFTSDYSKYLESRRAQEFVK([γGlu-γGlu-γGlu-Ac])WLLST-OH
SMILES: CC(=O)N[C@@H](CCC(=O)N[C@@H](CCC(=O)N[C@@H](CCC(=O)NCCCC[C@H](NC(=O)[C@@H](NC(=O)[C@H](Cc1ccccc1)NC(=O)[C@H](CCC(=O)O)NC(=O)[C@H](CCC(N)=O)NC(=O)[C@H](C)NC(=O)[C@H](CCCNC(=N)N)NC(=O)[C@H](CCCNC(=N)N)NC(=O)[C@H](CO)NC(=O)[C@H](CCC(=O)O)NC(=O)[C@H](CC(C)C)NC(=O)[C@H](Cc1ccc(O)cc1)NC(=O)[C@H](CCCCN)NC(=O)[C@H](CO)NC(=O)[C@H](Cc1ccc(O)cc1)NC(=O)[C@H](CC(=O)O)NC(=O)[C@H](CO)NC(=O)[C@@H](NC(=O)[C@H](Cc1ccccc1)NC(=O)[C@@H](NC(=O)CNC(=O)[C@H](Cc1c[nH]cn1)NC(=O)[C@H](CO)NC(=O)CCc1c[nH]cn1)[C@@H](C)O)[C@@H](C)O)C(C)C)C(=O)N[C@@H](Cc1c[nH]c2ccccc12)C(=O)N[C@@H](CC(C)C)C(=O)N[C@@H](CC(C)C)C(=O)N[C@@H](CO)C(=O)N[C@H](C(=O)O)[C@@H](C)O)C(=O)O)C(=O)O)C(=O)O
notes: Imp written X under substitutions
In the assay with human glucagon receptor [1], B2 showed an IC50 of 1.5 nM. In addition, in the assay with human glucagon receptor [2], the “EC50 hGlucagonR (pM)” value turned out to be 6 pM.

B3: N^ε24-[(4S)-4-[[(4S)-4-[[(4S)-4-[[(4S)-4-[[(4S)-4-acetamido-4-carboxybutanoyl]amino]-4-carboxybutanoyl]amino]-4-carboxybutanoyl]amino]-4-carboxybutanoyl]amino]- … (peptide)
peptide: XSHGTFTSDYSKYLESRRAQEFVKWLLST
modifications: Imp (imidazopropionyl, des-amino-histidine) at position 1; N-epsilon of Lys24 acylated with acetyl-(gamma-Glu)5 substituent as in the name; C-terminal carboxylic acid
notes: as for B2
Turning to B3, the IC50 with human glucagon receptor [1] is 2.7 nM. Also, in the assay with human glucagon receptor [2], the “EC50 hGlucagonR (pM)” value is 6 pM.

The values above are taken from patent US20170008943A1 (Novo Nordisk, published 2017).
